Measurements from patent publication US20180156808A1, “METHODS FOR DIAGNOSIS AND PROGNOSIS OF CANCERS OF EPITHELIAL ORIGIN” (Children's Medical Center Corporation, priority 2004, published 2018).

T1: ADAM 12-S (Homo sapiens, UniProt O43184)
T1 construct: The full-length human ADAM 12-S gene was cloned into plasmid (p1151); made in house; host or cells: Cos-7 cells (ATCC, CRL 1651)
T1 sequence (O43184 208-738 isoform O43184-2 limits assumed): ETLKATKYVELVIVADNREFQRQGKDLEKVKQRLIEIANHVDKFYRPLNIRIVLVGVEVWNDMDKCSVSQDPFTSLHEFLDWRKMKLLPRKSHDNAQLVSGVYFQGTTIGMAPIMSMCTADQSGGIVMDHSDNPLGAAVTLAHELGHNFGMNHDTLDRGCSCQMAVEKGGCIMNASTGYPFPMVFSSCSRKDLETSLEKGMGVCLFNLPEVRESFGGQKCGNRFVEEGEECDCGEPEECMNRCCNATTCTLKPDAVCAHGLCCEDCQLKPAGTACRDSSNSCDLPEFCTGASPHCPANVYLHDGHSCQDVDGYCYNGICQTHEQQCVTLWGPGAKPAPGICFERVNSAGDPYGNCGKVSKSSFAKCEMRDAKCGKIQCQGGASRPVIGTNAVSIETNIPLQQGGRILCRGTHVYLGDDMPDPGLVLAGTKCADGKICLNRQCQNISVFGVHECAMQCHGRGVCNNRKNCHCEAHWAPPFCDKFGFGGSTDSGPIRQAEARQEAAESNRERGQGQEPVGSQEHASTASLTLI
T1 sequence (O43184 29-207 partner limits assumed): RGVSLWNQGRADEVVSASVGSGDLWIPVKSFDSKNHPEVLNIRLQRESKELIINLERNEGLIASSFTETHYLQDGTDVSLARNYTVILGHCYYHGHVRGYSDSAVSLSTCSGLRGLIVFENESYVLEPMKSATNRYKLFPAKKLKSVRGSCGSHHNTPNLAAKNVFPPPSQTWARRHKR

B1: TIMP-4: endogenous inhibitor (protein, UniProt Q99727 30-224, looked up)
Metalloproteinase inhibitor 4: CSCAPAHPQQHICHSALVIRAKISSEKVVPASADPADTEKMLRYEIKQIKMFKGFEKVKDVQYIYTPFDSSLCGVKLEANSQKQYLLTGQVLSDGKVFIHLCNYIEPWEDLSLVQRESLNHHYHLNCGCQITTCYTVPCTISAPNECLWTDWLLERKLYGYQAQHYVCMKHVDGTCSWYRGHLPLRKEFVDIVQP
B2: TIMP-3: endogenous inhibitor (protein, UniProt P35625 24-211, looked up)
Metalloproteinase inhibitor 3: CTCSPSHPQDAFCNSDIVIRAKVVGKKLVKEGPFGTLVYTIKQMKMYRGFTKMPHVQYIHTEASESLCGLKLEVNKYQYLLTGRVYDGKMYTGLCNFVERWDQLTLSQRKGLNYRYHLGCNCKIKSCYYLPCFVTSKNECLWTDMLSNFGYPGYQSKHYACIRQKGGYCSWYRGWAPPDKSIINATDP

Target: T1, ADAM 12-S
Test: Inhibition of gelatin degradation by ADAM 12 (SDS-PAGE, Coomassie staining)
Format: biochemical
Conditions: ADAM 12 160 nM, 37° C., 18 h; for inhibition of gelatin degradation by ADAM 12: 30 μg gelatin
Procedure: The full-length human ADAM 12-S gene was cloned into plasmid (p1151) and transfection of Cos-7 cells (ATCC, CRL 1651) was conducted as previously described (5). Expressed recombinant ADAM 12-S secreted into the conditioned medium, was purified as previously described with minor modifications. Briefly, conditioned media from transfected Cos-7 cells was subjected to successive steps of SP Sepharose and ConA Sepharose chromatography as described (6). ADAM 12-S containing fractions from the ConA Sepharose column were pooled and after buffer exchange applied to a Vivapure H Mini Q column (VivaScience, Carlsbad, Calif.) pre-equilibrated with buffer A containing 0.05% CHAPS. Pure ADAM 12-S was detected in the flow-through fraction as determined by SDS-PAGE and immunoblot analysis.
Gelatin, Type IV collagen, fibronectin and casein-degrading activity of ADAM 12-S was measured as previously described (14). ADAM 12-S (1 μM) was mixed with non-reducing sample buffer and separated on a 10% polyacrylamide gel containing either 0.1% gelatin, 0.1% Type IV collagen or 0.02% fibronectin and a 12% polyacrylamide gel containing 0.1% casein. After electrophoresis, the gel was washed with 2.5% Triton X-100 for 30 min. Substrate digestion was conducted by incubating the gel in 50 mM Tris, pH 7.6, containing 5 mM CaCl2, 1 μM ZnCl2 and 0.02% NaN3 at 37° C. for 18 h. Gels were stained with 0.1% Coomassie and bands of enzyme activity were detected as zones of clearance on a background of uniform blue staining. […] For inhibition assays, ADAM 12 (160 nM) was incubated with 30 μg gelatin in assay buffer (50 mM Tris, pH 7.5) in the presence or absence of various inhibitors 5 mM 1, 10-phenanthroline, 5 mM EDTA, 1 mM Marimastat or two different concentrations (100 and 500 nM) of either TIMP-1, TIMP-2, TIMP-3 or TIMP-4 in a final volume of 30 μl at 37° C. for 18 h. Reactions were stopped with the addition of non-reducing sample buffer and the samples resolved by SDS-PAGE analysis followed by Coomassie staining.

[1] = inhibitor 100 and 500 nM (even at concentrations 5-fold higher than the enzyme)

Row | Molecule | inhibition of the gelatinase activity of ADAM 12 [1] | inhibition of gelatin degradation by ADAM 12 (inhibitor 5 mM) | other results
1 | TIMP-1: endogenous inhibitor | did not inhibit |  | 
2 | c1cnc2c(c1)ccc1cccnc12 [1, 10-phenanthroline] |  | inhibited | 
3 | CNC(=O)[C@@H](NC(=O)[C@H](CC(C)C)[C@H](O)C(=O)NO)C(C)(C)C [Marimastat] |  |  | inhibition of gelatin degradation by ADAM 12 (inhibitor 1 mM): partial inhibition
4 | O=C(O)CN(CCN(CC(=O)O)CC(=O)O)CC(=O)O [EDTA] |  | inhibited | 
5 | B1 | did not inhibit |  | 
6 | B2 |  |  | inhibition of the gelatinase activity of ADAM 12 (inhibitor 500 nM): effective inhibitor
